Measurements: patent US20180016324A1 (Regeneron, published 2018)

B1: H4H25587P (antibody, V domains shown)
VH: EVQLVESGGGLVQPGRSLTLSCAASGFTFDDYVMHWVRQAPGKGLEWVSGISWNSDTIDYADSVKGRFTISRDNAKNSLYLQMNSLRAEDTALYYCAKDRRSWYGGYFDYWGQGTLVTVSS
VL: DIQMTQSPSSLSASVGDRVTITCRASQGISSYLAWYQQKPGKVPKLLIYAASTLQSGVPSRFSGSGSGTDFSLTISSLQPEDVATYYCQKYNSAPLTFGGGTKVEIK
B2: H4H25591P (antibody, V domains shown)
VH: QVQLVESGGGVVQPGRSLRLSCAASGFTFSYSGMHWVRQAPGKGLEWVAVISYDGINKYYADSVKGRFTISRDNSKNTLYLQMNSLRPEDTAVYYCAKDRGGRFDPWGQGTLVTVSS
VL: DIQMTQSPSSLSASVGDRVTITCRASQGISNYLAWYQQKPGKVPNLLIYGASTLHSGVPSRFSGSGSGTDFTLTISSLQPADVATYYCQKYNSAPLTFGGGTKVEIK
B3: H4H25566P (antibody, V domains shown)
VH: QVQLQESGPGLVKPSQTLSLTCTVSGGSISSGGYYWSWIRQHPGKGLEWIGYIYYSGSTYYNPSLKSRITISIDTSKNQFSLKLTSVTAADTAVYYCARGQQLLSFDYWGQGTLVTVSS
VL: DIQMTQSPSSVSASVGDRVTITCRASQGISRWLAWYQLKPGKPPTPLIYAASSLQSGAPSRFSGRGSGTDFTLTISSLQPEDFATYYCQQANSFPYTFGQGTKLEIK
B4: H4H25708N (antibody, V domains shown)
VH: EVQLLESGGDLVQPGGSLRLSCAASGFTFSSYAMSWVRQAPGKGLEWVSAISVSGDSTYYADSVKGRFTISRDNSKNTLYLQMNSLRAEDTAVYYCAKDRGYTWNYYYYGMDVWGQGTTVTVSS
VL: not shown
B5: H4H25710N (antibody, V domains shown)
VH: EVQLLESGGGLVQPGGSLRLSCAASGFTVSNNYMSWVRQAPGKGLEWVSVIYSGGRTNYGDSVKGRFTISRDNSKNTLYLQMNSLRAEDTAVYYCARENYDFWSGDPYGWDVWGQGTTVTVSS
VL: DIQMTQSPSSLSASVGDRVTITCRASQDISNYLAWFQQKPGKAPKSLIYGASSLQRGVPSKFRGSGSGTDFTLTISSLQPEDFASYYCQQYNSYPYTFGQGTKLEIK
B6: H2aM25709N (antibody, V domains shown)
VH: EVQLVESGGGLVQPGGSLRLSCAASGFTVSSNYMSWVRQAPGKGLEWVSVIYSGGRTNYGDSVKGRFTISRDNSKNTLYLQMNSLRAEDTAVYYCARENYDFWSGDPYGWDVWGQGTTVTVSS
VL: DIQMTQSPSSLSASVGDRVTITCRASQDISNYLAWFQQKPGKAPKSLIYGASSLQRGVPSKFSGSGSGTDFTLTISSLQPEDFATYYCQQYNSYPYTFGQGTKLEIK
B7: H2aM25711N (antibody, V domains shown)
VH: EVQLVESGGGLVQPGGSLRLSCAASGFTVSSNYMSWVRQAPGKGLEWVSVIYSGGRTNYGDSVKGRFTISRDNSKNTLYLQMNSLRAEDTAVYYCARENYDFWSGDPYGWDVWGQGTTVTVSS
VL: DIQMTQSPSSLSASVGDRVTITCRASQDISNYLAWFQQKPGKAPKSLIYGASSLQRGVPSKFSGSGSGTDFTLTISSLQPEDFATYYCQQYNSYPYTFGQGTKLEIK
B8: H4H25630P (antibody, V domains shown)
VH: QVQLVQSGAEVKRPGASVKVSCKASDYTFTDYGISWVRQAPGQGLEWMGWFNTYNGNTNYAQKFQGRITMTTDTSTSTAYMELRSLRSDDTAIYYCARDWGLHYFENWGQGTLVTVSS
VL: EIVLTQSPGTLSLSPGERATLSCRASQSVRNSYLAWYQQKPGQAPRLLIYGASSRDTGIPDRFSGSGSGTDFTLTISRLEPEDFAVYYCQQYGRSPWTFGQGTKVEIK
B9: H4H25633P (antibody, V domains shown)
VH: EVQLVESGGGLVQPGRSLRLSCAASGFTFDDYAIHWVRQAPGKGLEWVSGISWNSGYLGYADSVKGRFTISRDNAKNSLYLQMNSLRAEDTAFYYCAKDVAWGSVRHVFEIWGQGTMVTVSS
VL: EIVLTQSPGTLSLSPGERATLSCRASQTITGNQLAWYQQKPGQAPRLLIYFTSSRATGIPDRFSGSGSGTDFSLTISRLEPEDFAVYFCQQFGYSPWTFGQGTKVEIK
B10: H4H25626P (antibody, V domains shown)
VH: QVQLVESGGGVVQPGRSLRLSCAASGFTFSSYGMHWVRQAPGKGLEWVALIWYDGSDKHYVDSMKGRFTISRDNSKNTLYLQMNSLRADDTAVYYCARQAYYFYYGMDVWGQGTTVTVSS
VL: not shown

Key:
[1] = molecular target: T1, ZIKV prM/E polyprotein on virus-like particles (VLPs) from HEK293T/17 cells (Zika virus, UniProt A0A024B7W1 123-795); test: MSD ECL, VLPs on plate
T1 construct: also called ZIKV prM/E VLPs; Zika prM/E VLPs

[2] = molecular target: T2, ZIKV (prM80E) with a C-terminal myc-myc-hexahistidine tag (Zika virus, UniProt A0A024B7W1 104-694); test: SPR, mAb captured, 37C
T2 construct: also called ZIKV (prM80E)-mmH; ZIKV-mmH

[3] = molecular target: T2, ZIKV (prM80E) with a C-terminal …; test: SPR, mAb captured, 37C; remark: listed apart in the source
[4] = molecular target: T2, ZIKV (prM80E) with a C-terminal …; test: SPR, mAb captured, 25C
[5] = molecular target: T2, ZIKV (prM80E) with a C-terminal …; test: SPR, mAb captured, 37C; remark: listed apart in the source
[6] = molecular target: ZIKV envelope glycoprotein (E) of strain MR766 (Uganda 1947) (Zika virus, UniProt Q32ZE1 291-790); test: cell-based or functional assay
[7] = molecular target: ZIKV envelope glycoprotein (E) of strain PRVABC59 (Puerto Rico 2015) (Zika virus); test: cell-based or functional assay
[8] = molecular target: ZIKV envelope glycoprotein (E) of strain FLR (Colombia 2015) (Zika virus); test: cell-based or functional assay
[9] = molecular target: T2, ZIKV (prM80E) with a C-terminal …; test: SPR, mAb captured, 37C, pH 7.4
[10] = molecular target: T2, ZIKV (prM80E) with a C-terminal …; test: SPR, mAb captured, 37C, pH 6.0 chase
[11] = molecular target: T2, ZIKV (prM80E) with a C-terminal …; test: SPR, mAb captured, 37C, pH 5.0 chase
[12] = molecular target: T2, ZIKV (prM80E) with a C-terminal …; test: SPR, mAb captured, 37C, pH 5.5 chase

Row | Binder | EC50 [1] [pM] | t½ pH 7.4/t½ pH 6.0 [2] | t½ pH 7.4/t½ pH 5.0 [3] | t½ pH 7.4/t½ pH 5.5 [3] | Kd [4] [pM] | koff [4] [s⁻¹] | kon [4] [M⁻¹ s⁻¹] | t½ [4] [min] | Kd [5] [pM] | koff [5] [s⁻¹] | kon [5] [M⁻¹ s⁻¹] | t½ [5] [min] | neutralization IC50, Vero cells [6] [pM] | neutralization IC50, Vero cells [7] [pM] | neutralization IC50, Vero cells [8] [pM] | koff [9] [s⁻¹] | t½ [9] [min] | koff [10] [s⁻¹] | t½ [10] [min] | koff [11] [s⁻¹] | also measured
1 | B1 | 145 | 0.8 | 1 | 1 | 5130 | 0.00422 | 822000 | 2.7 | 13200 | 0.0145 | 1.1e+06 | 0.8 | 150 | 321 | 955 | 0.018 | 0.64 | 0.0151 | 0.77 | 0.0177 | t½ [11]: 0.7 min; koff [12]: 0.0174 s⁻¹; t½ [12]: 0.66 min
2 | B2 | 102 | 2.2 | 2.4 | 2.9 | 4900 | 0.00318 | 649000 | 3.6 | 8370 | 0.00682 | 816000 | 1.7 | 34.3 | 254 | 330 | 0.0063 | 1.83 | 0.0136 | 0.85 | 0.0148 | t½ [11]: 0.8 min; koff [12]: 0.0184 s⁻¹; t½ [12]: 0.63 min
3 | B3 | 820 | 5.5 | 6.8 | 7.2 | 27700 | 0.0163 | 590000 | 0.7 | 52500 | 0.036 | 687000 | 0.3 |  |  | 1550 | 0.0542 | 0.21 | 0.299 | 0.04 | 0.368 | t½ [11]: 0.03 min; koff [12]: 0.392 s⁻¹; t½ [12]: 0.03 min
4 | B4 | 133000 | 0.6 | 0.5 | 0.6 | 1210 | 0.000504 | 417000 | 22.9 | 2970 | 0.00232 | 781000 | 5 | 349 |  |  | 0.0026 | 4.45 | 0.00144 | 8.02 | 0.00129 | t½ [11]: 8.9 min; koff [12]: 0.00157 s⁻¹; t½ [12]: 7.37 min
5 | B5 | 542 | 24 | 62.6 | 33.4 | 6990 | 0.00209 | 299000 | 5.5 | 12400 | 0.0064 | 519000 | 1.8 | 47.1 | 1240 | 1060 | 0.00541 | 2.14 | 0.13 | 0.09 | 0.339 | t½ [11]: 0.03 min; koff [12]: 0.181 s⁻¹; t½ [12]: 0.06 min
6 | B6 | 362 |  |  |  |  |  |  |  |  |  |  |  |  |  |  |  |  |  |  |  | 
7 | B7 | 468 |  |  |  |  |  |  |  |  |  |  |  |  |  |  |  |  |  |  |  | 
8 | B8 | 217 |  |  |  | 210 | 0.00035 | 1.67e+06 | 33 | 1160 | 0.00229 | 1.98e+06 | 5.1 | 147 | 539 | 283 |  |  |  |  |  | 
9 | B9 | 400 |  |  |  | 1950 | 0.000802 | 411000 | 14.4 | 7390 | 0.00501 | 678000 | 2.3 | 102 | 652 | 440 |  |  |  |  |  | 
10 | B10 | 1590 |  |  |  | 6170 | 0.000905 | 147000 | 12.8 | 6180 | 0.00187 | 303000 | 6.2 | 159 | 1170 | 1090 |  |  |  |  |  | 
